Measurements: paper PMC10388305, “Synthesis and Evaluation of a Monomethyl Auristatin E—Integrin αvβ6 Binding Peptide–Drug Conjugate for Tumor Targeted Drug Delivery” (Journal of Medicinal Chemistry, 2023)
Like-named read-outs stand apart in the source and are kept apart here.

Columns and labels:
[1] = test system: BxPC-3 (+) cells; assay: Cell binding assay, BxPC-3; format: cell-based; details: 1 h, 37 °C, γ-counter, n = 3
Excerpt: Binding to cells with minimal to no expression of integrin αvβ6 was low at 4.4 ± 0.1% to DX3puro cells and 7.9 ± 0.4% to pancreatic MIA PaCa-2 cells. Binding of [^64Cu]PDC-1 to DX3puroβ6 (+) and BxPC-3 (+) was reduced by adding increasing amounts of DOTA-PDC-1, illustrating that the αvβ6-selective uptake could be blocked (Figure S3). Internalization of [^64Cu]-PDC-1 into cells was high with >50% of the bound radioactivity internalized for all cells expressing the integrin αvβ6. In comparison, cell binding of [^64Cu]2 to DX3puroβ6 (+) cells was 58.8 ± 2.3, and 3.3 ± 0.4% to the DX3puro (−) cells.
Cell binding and internalization assay. Binding and internalization were determined as previously described. […] The fraction of bound radioactivity was determined with a γ-counter (by measuring cell pellet and combined supernatants). To determine the fraction of internalized radioactivity, the cells were re-pelleted, and re-suspended in acidic wash buffer (0.2 M sodium acetate, 0.5 M sodium chloride, pH = 2.5, 300 μL, 4 °C, 5 min) to release surface bound activity, followed by a wash with PBS (300 μL). The internalized fraction was determined with a γ-counter (cell pellet vs. radioactivity released into supernatant). A Wizard 1470 or Wizard 2 2470 automatic γ-counter (Perkin-Elmer, Waltham, MA) was used to measure radioactivity samples. […]

[2] = test system: DX3puroβ6/DX3puro and BxPC-3 xenograft tumor models; assay: Biodistribution, both tumor models; format: in vivo, mice; details: DOTA-2 (205 nmol) 10 min prior; 4 h p.i.; both models
Protocol: (§1) Aliquots of the formulated [^64Cu]PDC-1 in isotonic 0.9% saline (4.81–5.74 MBq, 1.7–2.1 μg, 0.26–0.31 nmol, 100 μL, pH 7.2) were injected i.v. as described above. Following the conscious uptake period, the mice were anesthetized (5% isoflurane), euthanized, and dissected (n ≥ 3/model/time point [4, 24, and 48 h]; the 48 h time point also included the imaging animals sacrificed after the PET scans). Tissues were collected, washed, weighed, and radioactivity measured in a γ-counter. Calibrated, decay-corrected radioactivity was expressed as the percentage of injected dose per gram of tissue (% ID/g). Data are reported as mean ± SD. […] For in vivo blocking studies, DOTA-2 (50 mg/kg, 205 nmol, 1.4 mg in 100 μL 0.9% saline) was injected i.v. into two animals/tumor model 10 min prior to [^64Cu]PDC-1. The animals were sacrificed after 4 h, tissues collected, washed, weighed, and radioactivity measured in a γ-counter.

[3] = Biodistribution, both tumor models; format: in vivo, mice; details: female, athymic nude, mouse, iv, total radioactivity; for tissue uptake: all time points
Protocol: as §1

CC[C@H](C)[C@@H]([C@@H](CC(=O)N1CCC[C@H]1[C@H](OC)[C@@H](C)C(=O)N[C@H](C)[C@@H](O)c1ccccc1)OC)N(C)C(=O)[C@@H](NC(=O)[C@H](C(C)C)N(C)C(=O)OCc1ccc(NC(=O)[C@H](CCCNC(N)=O)NC(=O)[C@@H](NC(=O)CCOCCOCCNC(=O)CCN2C(=O)CC(SC[C@H](NC(=O)CN3CCN(CC(=O)O)CCN(CC(=O)O)CCN(CC(=O)O)CC3)C(=O)NCCOCCOCCOCCOCCOCCOCCOCCOCCOCCOCCOCCOCCOCCOCCOCCOCCOCCOCCOCCOCCOCCOCCOCCOCCOCCOCCOCCOCCC(=O)N[C@@H](CC(N)=O)C(=O)N[C@@H](C)C(=O)N[C@H](C(=O)N3CCC[C@H]3C(=O)N[C@@H](CC(N)=O)C(=O)N[C@@H](CC(C)C)C(=O)N[C@@H](CCCNC(=N)N)C(=O)NCC(=O)N[C@@H](CC(=O)O)C(=O)N[C@@H](CC(C)C)C(=O)N[C@@H](CCC(N)=O)C(=O)N[C@H](C(=O)N[C@@H](CC(C)C)C(=O)N[C@@H](C)C(=O)N[C@@H](CCC(N)=O)C(=O)N[C@@H](CCCNC(=N)N)C(=O)N[C@H](C(=O)N[C@@H](C)C(=O)N[C@@H](CCCNC(=N)N)C(=O)N[C@H](C(=O)NCCOCCOCCOCCOCCOCCOCCOCCOCCOCCOCCOCCOCCOCCOCCOCCOCCOCCOCCOCCOCCOCCOCCOCCOCCOCCOCCOCCOCCC(N)=O)[C@@H](C)O)C(C)C)C(C)C)C(C)C)C2=O)C(C)C)cc1)C(C)C (stereo partly drawn) [[^64Cu]PDC-1, metal not drawn]
Cell binding [1]: 62.0 ± 1.0% | Reduction of uptake in the αvβ6 (+) tumors by blocking [2]: 87–91% | excreta dose per gram or mL at 4 h ([3]; faeces, 4 h, read-out: Fecal matter): 12 %ID/g | excreta dose per gram or mL at 48 h ([3]; faeces, 48 h, read-out: Fecal matter): 1.5 %ID/g | tissue uptake at 4 h ([3]; kidney, 4 h, both models, read-out: Kidney uptake): 50 to 64 %ID/g | tissue uptake at 48 h ([3]; kidney, 48 h, both models, read-out: Kidney uptake): ≤ 25 %ID/g | tissue uptake at 4 h ([3]; large intestines, 4 h, read-out: Large intestines uptake): 6 %ID/g | tissue uptake at 48 h ([3]; large intestines, 48 h, read-out: Large intestines uptake): 3 %ID/g | tissue uptake ([3]; muscle, read-out: Muscle uptake): ≤ 0.9 %ID/g | tissue uptake ([3]; pancreas, read-out: Pancreas uptake): ≤ 0.5 %ID/g | tissue uptake at 4 h ([3]; small intestines, 4 h, read-out: Small intestines uptake): 4 to 5 %ID/g | tissue uptake at 4 h ([3]; stomach, 4 h, read-out: Stomach uptake): 9 %ID/g
